# Patent US20230346919A1
# Biological target: SARS-CoV-2 spike SΔ21 displayed on VSV-eGFP-SARS-CoV-2-SΔ21 particles (SARS-CoV-2 isolate Wuhan-Hu-1) (UniProt P0DTC2)
# Assay: cell-based or functional assay
substance,measurement,value
mAb S309 (antibody),"EC50, neutralization of VSV-SARS-CoV-2-SΔ21 (GRNT, Vero E6 cells)",0.067 µg/mL
